B1: CsSCPL11-IA (Camellia sinensis var. sinensis) (protein)
chain: ELPFKLETGYALIYIRVNESELFYYFIESQGNPQEDPIFLWLPGGPGCSSFHELVYGFGMVKILIVKTASIIFLDAPVGTGFSYSRTADGWPTSDSKSAEQSYQFLREWFDEHPQYLAVQLFVGKGNKDGVKPFMNLKGYLLGSPRTDSVIDENSKVVFAHRMALISDEIYENAKTGCNDTYVSIDPANTACIVALGNIKTCIKDLFRNDILEPKCVFATPDPGEEPAARRSLEEGPSDFLLSPPMIPNLWCRNFNYVLSYIWSNDDTVQEVLHVRKGSVLNWERCNKSLSYTKDILTVVPVHEELKELGLEVLVETGDRDMVVPFVGTVKWIKSLNLTVVNDWRPWFVDGQVAGYTIKYSEHGYRLTYATVKGAGHTAPEYYRMECYYMFDRWIHYYPI
notes: N-terminal 50 residues (transmembrane region) deleted, Met inserted; His-tag (pDEST17); E. coli; nickel resin, partially purified; full protein 450 residues, 51 kD
B2: CsSCPL13-IA (Camellia sinensis var. sinensis) (protein)
chain: MVQVEAIAASQKQLLQKPSCAWIRWVQNHLLLQLLLAQPVLGGQIVKYLPGFDGELPFKLETGQLKSDDGFVVDFDRYISVDDSELFYYFIESEGNPQEDPLFLWLTGGPGCTSFSGLLYEVGPMEYDIDNYTGGLPKLKYYPYARTKTASMIFLDAPVGTGFSYARTPGGWPTSDTKSAEQSYQFLRKWLVEHPQFLSVQLFVGGDSYAGLAVPLITKKIIDGNKEKAEPYMNIKGYLVGCPGTDSVIDGNSRVDFAHRMALISDEIYENAKRSCNENYINVDPANTACITAMGAVQKCLEDLSDKDILKPKCDLSSQDHPEGPDRRFLKEGSSEFLLSPSTFPKSWCTTLKLTHNSIWANDDGVQEALHVRKGTVPRWERCNNSLSYTKDVSSVIAVHKELSRSSLEVLVESGDHDISVPYMGTLKWIKSLNLTLVDDWRPWFVDNQVAGYTMKYSEEHGYHLTFATIKGAGHPAPEYYRRECYCLFDRWINYNPV
notes: full length, His-tag (pDEST17); E. coli; nickel resin, partially purified; 498 residues, 56 kD
B3: CsSCPL14-IA (Camellia sinensis var. sinensis) (protein)
chain: SVDDSELFYYFIESEGNPQEDPLFLWLTGGPGCTSFSGLLYEVGPMEYDIDNYTGGLPKLKYYPYARTKTASMIFLDAPVGTGFSYARTPGGWPTSDTKSAEQSYQFLRKWLVEHPQFLSVQLFVGGDSYAGLTVPLITKKIIDGNKEKAKPYMNIKGYLVGCPGTDSVIDGNSRVDFAHRMALISDEIYENAKRSCNENYINVDPANTACITAMGAIQKCLKDLSDKDILKPKCDLSSQDHPEGPDRRFLKEGSSEFLLSPSTFPKPWCTTLKLTHNSIWANDDGVQEALHVRKGTVPRWERCNNSLSYTQDVLSVIAVHKELSRSSLEVLVERFFIFFLLLPAANRPSLPSRPPDNLTHHS
notes: N-terminal 50 residues (transmembrane region) deleted, Met inserted; His-tag (pDEST17); E. coli; nickel resin, partially purified; full protein 413 residues, 46 kD

Columns and labels:
[1] = substrate: Oc1cc(O)c2c(c1)O[C@H](c1cc(O)c(O)c(O)c1)[C@H](O)C2; assay: purified protein; conditions: 0.4 mM PGG as donor, potassium phosphate pH 6.0, 30 °C
[2] = substrate: O=C(OC[C@H]1O[C@@H](OC(=O)c2cc(O)c(O)c(O)c2)[C@H](OC(=O)c2cc(O)c(O)c(O)c2)[C@@H](OC(=O)c2cc(O)c(O)c(O)c2)[C@@H]1OC(=O)c1cc(O)c(O)c(O)c1)c1cc(O)c(O)c(O)c1; assay: HPLC galloyltransferase assay, Lineweaver-Burk; format: biochemical, Camellia sinensis; conditions: 1.0 mM EGC as acceptor, potassium phosphate pH 6.0, 30 °C
[3] = substrate: Oc1cc(O)c2c(c1)O[C@H](c1ccc(O)c(O)c1)[C@H](O)C2; assay: HPLC galloyltransferase assay, Lineweaver-Burk; format: biochemical, Camellia sinensis; conditions: 0.4 mM PGG as donor, potassium phosphate pH 6.0, 30 °C

Protein	Km [1] [µM]	Vmax [1] [µmol/min/mg]	kcat [1] [s⁻¹]	kcat/Km [1] [M⁻¹ s⁻¹]	Km [2] [µM]	Vmax [2] [µmol/min/mg]	kcat [2] [s⁻¹]	kcat/Km [2] [M⁻¹ s⁻¹]	Km [3] [µM]	Vmax [3] [µmol/min/mg]	kcat [3] [s⁻¹]	kcat/Km [3] [M⁻¹ s⁻¹]
B1	40.67 ± 5.56	13.2	219	5.39e+06	13.34 ± 1.78	4.05	67.5 ± 7.34	5.06e+06 ± 970000	85.39 ± 10.62	16.1	269 ± 22.8	3.14e+06 ± 640000
B2	49.73 ± 8.36	20.4	340	6.84e+06	10.43 ± 1.25	3.67	61 ± 8.82	5.85e+06 ± 840000	160.41 ± 21.2	37	617 ± 62.5	3.85e+06 ± 420000
B3	103.38 ± 15.63	62.5	1040	1.01e+07	20.81 ± 3.51	10.6	177 ± 22.8	8.52e+06 ± 1.38e+06	64.28 ± 0.81	20	333 ± 35.2	5.19e+06 ± 480000

Source: PMC7330524, “Genome-Wide Analysis of Serine Carboxypeptidase-Like Acyltransferase Gene Family for Evolution and Characterization of Enzymes Involved in the Biosynthesis of Galloylated Catechins in the Tea Plant (Camellia sinensis)” (Frontiers in Plant Science, 2020)
